According to the supplement of paper PMC10567573:

B1: CDKN1A (parent)
chain: GRKRRQTSMTDFYHSKRRLIFSKR
B2: TRIM9 (parent)
chain: CVQCKMPVCYQCLEEGKHSSHEVK

Variants of: B1
Experiment: protein stability index of a GFP-peptide fusion (GPS, HEK-293T) (PSI 1-6); higher = more stable
Conditions: c terminus: a fixed tail appended
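Note: lentivirally expressed fusions sorted by FACS into six bins by GFP to DsRed ratio, PSI derived from sequencing read proportions per bin multiplied by bin number.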

Protein stability index: each site, then its substitutions
K23: S 2.78 | D 2.95 | N 2.3 | P 2.48 | L 1.96 | Q 1.58 | T 3.3 | W 2.87 | F 3.02 | A 3.19 | Y 2.74
R17: N 3.38 | K 3.87 | V 4.34 | C 2.76 | T 3.02 | M 3.08 | D 3.57 | I 2.97 | Q 3.46 | W 2.28 | F 2.19 | P 2.62 | G 2.04 | H 2.64 | A 2.13 | E 3.75 | S 3.19
I20: W 2.3 | K 2.99 | M 2.86 | A 3.46 | R 2.15 | D 2.84 | C 2.93 | N 3.51 | T 2.86 | S 2.5 | F 3.1
R24: K 2.24 | F 2.24 | V 2 | Y 2.91 | N 3.1 | H 2.4 | E 2.67 | Q 3.2 | M 2.17 | D 3.29 | P 3.22 | C 3.93 | L 3.19 | S 3.62 | I 2.91 | W 3.26 | G 3.52 | T 2.21 | A 3.13
F21: C 3.58 | T 3.22 | W 3.45 | K 3.14 | N 3.63 | H 3 | M 3.48 | A 2.4 | D 3.79 | I 3.27 | G 3.13 | P 1.99 | Y 3.38 | S 3.66 | L 3.08 | E 2.62
R18: H 2.15 | K 2.64 | N 2.76 | P 2.11 | M 1.86 | A 3.35 | L 3.13 | V 2.93 | G 2.8 | F 2.78 | T 2.45 | Q 1.47 | C 2.37 | D 2.48 | S 2.77
L19: G 2.71 | C 2.81 | N 3 | R 2.77 | Y 3.91 | H 3.78 | K 3.86 | S 3.31 | M 3.98 | Q 3.85 | I 2.65 | W 3.25 | P 2.14 | F 2.88
S22: T 2.87 | M 4.04 | C 2.35 | N 2.57 | A 3.99 | R 2.79 | I 2.53 | D 2.17 | Q 3.09
K16: F 2.28 | A 3.51 | Y 2.93 | C 3.39 | T 4.09 | E 3.76 | G 2.62 | P 2.07 | I 3.82 | H 2.96 | V 3.12 | R 4.25 | W 3.97 | N 2.99 | Q 2.83
S15: N 3.16 | T 2.44 | R 3.43 | W 3.71 | Y 3.78 | P 2.59

Variants of: B2
Experiment: as above
Conditions: c terminus: a fixed tail appended

Protein stability index, by site and new letter:
V8: Y 3.01 | S 4.53 | I 3.66 | F 4.03 | D 4.21 | A 4.13 | M 4.13 | L 3.65 | P 3.61 | N 4.49 | E 4.41 | K 5.1 | G 4.82 | Q 4.33 | W 3.76 | R 3.75 | H 4.89 | T 3.79 | C 3.95
Q3: H 4.52 | P 2.94 | S 4.12 | W 2.88 | E 3.82 | A 2.96 | D 3.91 | G 3.73 | M 3.4 | F 3.1 | K 3.73 | Y 3.04 | T 3.56 | N 4.49 | R 4.22 | I 3.6 | C 3.99
C1: F 2.58 | G 2.88 | E 3.95 | K 3.65 | D 3.77 | R 3.58 | M 2.93 | L 3.27 | H 4.52 | I 3.08 | T 3.75 | N 2.79 | P 2.86 | V 3.23 | Y 1.74 | Q 4.03 | W 2.98
C4: Y 3.86 | I 2.44 | A 3.2 | K 4.13 | M 3.37 | R 2.83 | H 3.62 | N 3.3 | G 3.15 | P 4.11 | W 3.17 | Q 3.39 | F 2.66 | S 3.23 | E 3.38 | V 2.9 | T 2.93 | L 3.68 | D 4.01
V2: M 3.67 | Y 3.71 | K 4.29 | T 3.85 | G 3.6 | S 4.25 | E 3.92 | I 4.02 | N 3.46 | H 4.63 | D 4.16 | A 3.97 | Q 4.04 | R 3.8 | C 3.98 | L 3.5 | W 3.16 | F 3.51 | P 4.18
Q11: H 3.2 | S 3.67 | P 3.76 | Y 3.52 | W 2.93 | E 3.57 | I 3.4 | F 3.65 | C 4.83 | T 4.12 | L 2 | M 3.17 | D 4.05 | G 4.92 | V 3.27 | K 3.95 | N 4.27 | R 3.77
M6: T 3.96 | V 4.13 | D 4.71 | S 4.97 | Y 3.79 | L 3.99 | C 3.73 | A 3.95 | Q 4.36 | H 4.3 | N 4.22 | P 3.62 | I 3.4 | F 3.89 | K 4.46 | G 4.93 | E 4.37 | R 4.17
C12: A 3.35 | D 4.2
P7: T 3.08 | N 4.14 | R 3.51 | D 3.11 | A 4.02 | G 4.59 | K 3.84 | F 2.48 | H 3.23 | E 4.35 | S 3.65 | I 3.69 | C 4.06 | Q 3.83 | M 4.33 | L 3.28 | V 3.52 | W 3.18
Y10: R 4.27 | F 4 | N 4.27 | S 3.97 | M 4.08 | D 4.83 | W 2.51 | P 3.63 | I 3.71 | L 4.61 | K 4.15 | Q 4.16 | H 4 | A 4.26 | V 3.74 | T 3.52 | C 3.58 | E 4.32
C9: W 2.96 | Y 2.8 | G 4.47 | V 4.07 | S 4.24 | D 4.45 | M 3.64 | F 2.59 | L 3.28 | T 4.41 | N 3.87 | A 4.19 | Q 4.09 | P 3.02 | H 3.5 | R 3.31 | I 3.18
K5: R 4.15 | C 3.84 | D 3.75 | Q 2.83 | W 3.03 | P 3.52 | Y 2.56 | I 2.05 | F 2.52 | V 2.41 | S 3.9 | L 2.58 | G 4.38 | A 3.4 | E 4.22 | M 3.87 | H 3.8 | N 4.04 | T 3.38
